Earlier results as cited in PMC8622359.
pKd: −log10 of the molar value. Like-named read-outs stand apart in the source and are kept apart here. Blank lines part the entries; values can stand above or below the substance they belong to.

Tests used:
[1] = target: SAC3 (Saccharomyces cerevisiae) (UniProt P46674)
[2] = target: ScSFI1 (R19) (Saccharomyces cerevisiae); experiment: given as Ka
[3] = target: KAR1 (Saccharomyces cerevisiae) (UniProt P11927); experiment: given as Ka
[4] = target: ScSFI1 (R18) (Saccharomyces cerevisiae); experiment: given as Ka
Sequence of ScSFI1 (R18) (Saccharomyces cerevisiae) (Q12369 680-699): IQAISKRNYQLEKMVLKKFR

[5] = target: SAC3 (Saccharomyces cerevisiae) (UniProt P46674); experiment: given as Ka
[6] = target: SAC3 (Saccharomyces cerevisiae); experiment: given as Ka
[7] = target: SAC3 (Saccharomyces cerevisiae) (UniProt P46674); remark: listed apart in the source
[8] = target: ScSFI1 (R19) (Saccharomyces cerevisiae); experiment: given as Ka; remark: listed apart in the source
[9] = target: KAR1 (Saccharomyces cerevisiae) (UniProt P11927); experiment: given as Ka; remark: listed apart in the source
[10] = target: ScSFI1 (R18) (Saccharomyces cerevisiae); experiment: given as Ka; remark: listed apart in the source
[11] = target: PRP40A (Homo sapiens) (UniProt O75400); experiment: given as Ka
Sequence of PRP40A (Homo sapiens) (O75400 524-556): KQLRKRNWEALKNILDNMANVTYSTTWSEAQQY

[12] = target: XPC (Homo sapiens); experiment: given as Ka
[13] = target: HsSFI1 (R17) (Homo sapiens); experiment: given as Ka
Sequence of HsSFI1 (R17) (Homo sapiens) (A8K8P3 641-660): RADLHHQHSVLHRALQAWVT

[14] = target: XPC (Homo sapiens); experiment: given as Ka; remark: listed apart in the source
[15] = target: HsSFI1 (R17) (Homo sapiens); experiment: given as Ka; remark: listed apart in the source
[16] = target: HsSFI1 (R18) (Homo sapiens); experiment: given as Ka
Sequence of HsSFI1 (R18) (Homo sapiens) (A8K8P3 670-692): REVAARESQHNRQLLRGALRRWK

[17] = target: HsSFI1 (R18) (Homo sapiens); experiment: given as Ka; remark: listed apart in the source
[18] = target: Transducin β (Homo sapiens) (UniProt P62873); experiment: given as Ka
[19] = target: SAC3B (Arabidopsis thaliana) (UniProt F4JAU2); experiment: given as Ka
Sequence of SAC3B (Arabidopsis thaliana) (F4JAU2 1050-1075): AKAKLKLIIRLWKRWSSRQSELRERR

[20] = target: AtRAD4 (Arabidopsis thaliana)
[21] = target: SAC3B (Arabidopsis thaliana) (UniProt F4JAU2); experiment: given as Ka; remark: listed apart in the source
[22] = target: AtRAD4 (Arabidopsis thaliana); remark: listed apart in the source

Sequence of CDC31 (P06704 whole entry): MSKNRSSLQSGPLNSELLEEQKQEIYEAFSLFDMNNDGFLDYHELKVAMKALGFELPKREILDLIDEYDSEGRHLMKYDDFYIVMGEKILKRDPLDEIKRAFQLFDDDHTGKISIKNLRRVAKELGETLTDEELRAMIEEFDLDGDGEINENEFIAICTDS
Sequence of HsCEN2 (P41208 2-172): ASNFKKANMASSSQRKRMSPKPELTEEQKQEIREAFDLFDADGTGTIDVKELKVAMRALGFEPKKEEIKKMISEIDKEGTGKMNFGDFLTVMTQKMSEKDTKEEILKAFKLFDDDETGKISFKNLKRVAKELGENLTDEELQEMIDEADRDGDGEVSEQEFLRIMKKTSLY
Sequence of AtCEN2 (O23184 whole entry): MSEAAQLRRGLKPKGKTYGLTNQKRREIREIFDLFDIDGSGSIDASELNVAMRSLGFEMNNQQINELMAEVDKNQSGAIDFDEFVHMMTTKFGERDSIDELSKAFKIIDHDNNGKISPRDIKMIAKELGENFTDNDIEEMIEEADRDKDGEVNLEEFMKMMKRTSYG
Sequence of HsCEN1 (Q12798 whole entry): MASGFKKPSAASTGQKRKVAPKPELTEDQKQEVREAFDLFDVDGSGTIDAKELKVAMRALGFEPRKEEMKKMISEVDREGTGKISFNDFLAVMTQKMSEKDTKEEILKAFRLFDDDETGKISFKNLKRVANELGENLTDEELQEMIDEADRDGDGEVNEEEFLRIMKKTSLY
Sequence of ScSFI1 (R19) (Saccharomyces cerevisiae) (Q12369 710-729): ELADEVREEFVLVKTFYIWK

pKd [1]: 6.17
pKd [2]: 5.28
pKd [3]: 7.36
pKd [4]: 7.00
pKd [5]: 6.18
pKd [6]: 7.34
pKd [7]: 7.35
pKd [8]: 7.54
pKd [9]: 5.64
pKd [10]: 5.38
Substance: CDC31 (from UniProt P06704)

pKd [11]: 6.56
pKd [12]: 8.23
pKd [13]: 6.81
pKd [14]: 6.90
pKd [15]: 5.40
Substance: HsCEN2 (from UniProt P41208)

pKd [16]: 3.48
pKd [17]: 6.08
pKd [18]: 5.23
Substance: HsCEN1 (from UniProt Q12798)

pKd [19]: 6.18
pKd [20]: 7.27
pKd [21]: 5.61
pKd [22]: 5.10
Substance: AtCEN2 (from UniProt O23184)
